T1: Human LRRC15 Protein, His Tag (Acro Biosystems) (human, UniProt Q8TF66 22-538, limits assumed)
T1 construct: not shown: His tag
T1 sequence (looked up): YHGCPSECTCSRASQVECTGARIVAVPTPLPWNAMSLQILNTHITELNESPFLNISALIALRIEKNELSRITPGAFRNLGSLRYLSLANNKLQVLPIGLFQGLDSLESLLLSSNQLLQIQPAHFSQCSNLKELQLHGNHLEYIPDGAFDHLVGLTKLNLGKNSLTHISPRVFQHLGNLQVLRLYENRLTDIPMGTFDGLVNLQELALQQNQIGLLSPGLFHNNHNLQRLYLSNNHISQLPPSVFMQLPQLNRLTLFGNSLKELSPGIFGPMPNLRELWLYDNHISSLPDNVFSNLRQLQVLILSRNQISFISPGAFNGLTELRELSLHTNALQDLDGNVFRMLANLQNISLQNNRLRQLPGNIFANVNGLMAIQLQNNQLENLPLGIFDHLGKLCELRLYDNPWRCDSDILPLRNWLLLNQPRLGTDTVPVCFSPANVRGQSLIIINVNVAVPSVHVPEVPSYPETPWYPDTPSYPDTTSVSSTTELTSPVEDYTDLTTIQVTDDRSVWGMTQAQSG

B1: MYT7935 (antibody, V domains shown)
VH: QQQLVESGGGLVKPGASLTLTCKASGFSFSGSYWICWVRQAPGKGLEWIGCINGGSLDITYYASWAKGRFTISKASSTTVTLQKTSLTAADTATYFCASDTSYTAYGNFYFNLWGPGTLVTVSS
VL: AQVLTQTASPVSAAVGGTVTINCQSSQSVLNNHWLAWYQQKPGQPPKLLIYDASSLASGVPSRFKGSGSGTQFTLTISDLESDDAATYYCQGEFSCGSADCNAFGGGTEVVVKG
notes: also called 24D9 VL N33H
B2: MYT7949 (antibody, V domains shown)
VH: QQQLVESGGGLVKPGASLTLTCKASGFSFSGSYWICWVRQAPGKGLEWIGCINGGSLDITYYASWAKGRFTISKASSTTVTLQKTSLTAADTATYFCASDTSYTAYGNFYFNLWGPGTLVTVSS
VL: AQVLTQTASPVSAAVGGTVTINCQSSQSVLNNNWLAWYQQKPGQPPKLLIYDASSLASGVPSRFKGSGSGTQFTLTISDLESDDAATYYCQGEHSCGSADCNAFGGGTEVVVKG
notes: tested as culture supernatant; also called 24D9 VL F94H
B3: MYT7951 (antibody, V domains shown)
VH: QQQLVESGGGLVKPGASLTLTCKASGFSFSGSYWICWVRQAPGKGLEWIGCINGGSLDITYYASWAKGRFTISKASSTTVTLQKTSLTAADTATYFCASDTSYTAYGNFYFNLWGPGTLVTVSS
VL: AQVLTQTASPVSAAVGGTVTINCQSSQSVLNNNWLAWYQQKPGQPPKLLIYDASSLASGVPSRFKGSGSGTQFTLTISDLESDDAATYYCQGEFSHGSADCNAFGGGTEVVVKG
notes: tested as culture supernatant; also called 24D9 VL C96H
B4: MYT7940 (antibody, V domains shown)
VH: QQQLVESGGGLVKPGASLTLTCKASGFSFSGSYWICWVRQAPGKGLEWIGCINGGSLDITYYASWAKGRFTISKASSTTVTLQKTSLTAADTATYFCASDTSYTAYGNFYFNLWGPGTLVTVSS
VL: AQVLTQTASPVSAAVGGTVTINCQSSQSVLNNNWLAWYQQKPGQPPKLLIYDHSSLASGVPSRFKGSGSGTQFTLTISDLESDDAATYYCQGEFSCGSADCNAFGGGTEVVVKG
notes: tested as culture supernatant; also called 24D9 VL A53H
B5: MYT7953 (antibody, V domains shown)
VH: QQQLVESGGGLVKPGASLTLTCKASGFSFSGSYWICWVRQAPGKGLEWIGCINGGSLDITYYASWAKGRFTISKASSTTVTLQKTSLTAADTATYFCASDTSYTAYGNFYFNLWGPGTLVTVSS
VL: AQVLTQTASPVSAAVGGTVTINCQSSQSVLNNNWLAWYQQKPGQPPKLLIYDASSLASGVPSRFKGSGSGTQFTLTISDLESDDAATYYCQGEFSCGHADCNAFGGGTEVVVKG
notes: tested as culture supernatant; also called 24D9 VL S98H
B6: MYT7941 (antibody, V domains shown)
VH: QQQLVESGGGLVKPGASLTLTCKASGFSFSGSYWICWVRQAPGKGLEWIGCINGGSLDITYYASWAKGRFTISKASSTTVTLQKTSLTAADTATYFCASDTSYTAYGNFYFNLWGPGTLVTVSS
VL: AQVLTQTASPVSAAVGGTVTINCQSSQSVLNNNWLAWYQQKPGQPPKLLIYDAHSLASGVPSRFKGSGSGTQFTLTISDLESDDAATYYCQGEFSCGSADCNAFGGGTEVVVKG
notes: tested as culture supernatant; also called 24D9 VL S54H
B7: MYT7936 (antibody, V domains shown)
VH: QQQLVESGGGLVKPGASLTLTCKASGFSFSGSYWICWVRQAPGKGLEWIGCINGGSLDITYYASWAKGRFTISKASSTTVTLQKTSLTAADTATYFCASDTSYTAYGNFYFNLWGPGTLVTVSS
VL: AQVLTQTASPVSAAVGGTVTINCQSSQSVLNNNHLAWYQQKPGQPPKLLIYDASSLASGVPSRFKGSGSGTQFTLTISDLESDDAATYYCQGEFSCGSADCNAFGGGTEVVVKG
notes: tested as culture supernatant; also called 24D9 VL W34H
B8: MYT7943 (antibody, V domains shown)
VH: QQQLVESGGGLVKPGASLTLTCKASGFSFSGSYWICWVRQAPGKGLEWIGCINGGSLDITYYASWAKGRFTISKASSTTVTLQKTSLTAADTATYFCASDTSYTAYGNFYFNLWGPGTLVTVSS
VL: AQVLTQTASPVSAAVGGTVTINCQSSQSVLNNNWLAWYQQKPGQPPKLLIYDASSHASGVPSRFKGSGSGTQFTLTISDLESDDAATYYCQGEFSCGSADCNAFGGGTEVVVKG
notes: tested as culture supernatant; also called 24D9 VL L56H
B9: MYT7945 (antibody, V domains shown)
VH: QQQLVESGGGLVKPGASLTLTCKASGFSFSGSYWICWVRQAPGKGLEWIGCINGGSLDITYYASWAKGRFTISKASSTTVTLQKTSLTAADTATYFCASDTSYTAYGNFYFNLWGPGTLVTVSS
VL: AQVLTQTASPVSAAVGGTVTINCQSSQSVLNNNWLAWYQQKPGQPPKLLIYDASSLAHGVPSRFKGSGSGTQFTLTISDLESDDAATYYCQGEFSCGSADCNAFGGGTEVVVKG
notes: tested as culture supernatant; also called 24D9 VL S58H
B10: MYT7942 (antibody, V domains shown)
VH: QQQLVESGGGLVKPGASLTLTCKASGFSFSGSYWICWVRQAPGKGLEWIGCINGGSLDITYYASWAKGRFTISKASSTTVTLQKTSLTAADTATYFCASDTSYTAYGNFYFNLWGPGTLVTVSS
VL: AQVLTQTASPVSAAVGGTVTINCQSSQSVLNNNWLAWYQQKPGQPPKLLIYDASHLASGVPSRFKGSGSGTQFTLTISDLESDDAATYYCQGEFSCGSADCNAFGGGTEVVVKG
notes: tested as culture supernatant; also called 24D9 VL S55H
B11: MYT7947 (antibody, V domains shown)
VH: QQQLVESGGGLVKPGASLTLTCKASGFSFSGSYWICWVRQAPGKGLEWIGCINGGSLDITYYASWAKGRFTISKASSTTVTLQKTSLTAADTATYFCASDTSYTAYGNFYFNLWGPGTLVTVSS
VL: AQVLTQTASPVSAAVGGTVTINCQSSQSVLNNNWLAWYQQKPGQPPKLLIYDASSLASGVPSRFKGSGSGTQFTLTISDLESDDAATYYCQHEFSCGSADCNAFGGGTEVVVKG
notes: tested as culture supernatant; also called 24D9 VL G92H
B12: MYT7952 (antibody, V domains shown)
VH: QQQLVESGGGLVKPGASLTLTCKASGFSFSGSYWICWVRQAPGKGLEWIGCINGGSLDITYYASWAKGRFTISKASSTTVTLQKTSLTAADTATYFCASDTSYTAYGNFYFNLWGPGTLVTVSS
VL: AQVLTQTASPVSAAVGGTVTINCQSSQSVLNNNWLAWYQQKPGQPPKLLIYDASSLASGVPSRFKGSGSGTQFTLTISDLESDDAATYYCQGEFSCHSADCNAFGGGTEVVVKG
notes: tested as culture supernatant; also called 24D9 VL G97H
B13: MYT7950 (antibody, V domains shown)
VH: QQQLVESGGGLVKPGASLTLTCKASGFSFSGSYWICWVRQAPGKGLEWIGCINGGSLDITYYASWAKGRFTISKASSTTVTLQKTSLTAADTATYFCASDTSYTAYGNFYFNLWGPGTLVTVSS
VL: AQVLTQTASPVSAAVGGTVTINCQSSQSVLNNNWLAWYQQKPGQPPKLLIYDASSLASGVPSRFKGSGSGTQFTLTISDLESDDAATYYCQGEFHCGSADCNAFGGGTEVVVKG
notes: tested as culture supernatant; also called 24D9 VL S95H
B14: MYT7939 (antibody, V domains shown)
VH: QQQLVESGGGLVKPGASLTLTCKASGFSFSGSYWICWVRQAPGKGLEWIGCINGGSLDITYYASWAKGRFTISKASSTTVTLQKTSLTAADTATYFCASDTSYTAYGNFYFNLWGPGTLVTVSS
VL: AQVLTQTASPVSAAVGGTVTINCQSSQSVLNNNWLAWYQQKPGQPPKLLIYHASSLASGVPSRFKGSGSGTQFTLTISDLESDDAATYYCQGEFSCGSADCNAFGGGTEVVVKG
notes: tested as culture supernatant; also called 24D9 VL D52H
B15: MYT7944 (antibody, V domains shown)
VH: QQQLVESGGGLVKPGASLTLTCKASGFSFSGSYWICWVRQAPGKGLEWIGCINGGSLDITYYASWAKGRFTISKASSTTVTLQKTSLTAADTATYFCASDTSYTAYGNFYFNLWGPGTLVTVSS
VL: AQVLTQTASPVSAAVGGTVTINCQSSQSVLNNNWLAWYQQKPGQPPKLLIYDASSLHSGVPSRFKGSGSGTQFTLTISDLESDDAATYYCQGEFSCGSADCNAFGGGTEVVVKG
notes: tested as culture supernatant; also called 24D9 VL A57H
B16: MYT7938 (antibody, V domains shown)
VH: QQQLVESGGGLVKPGASLTLTCKASGFSFSGSYWICWVRQAPGKGLEWIGCINGGSLDITYYASWAKGRFTISKASSTTVTLQKTSLTAADTATYFCASDTSYTAYGNFYFNLWGPGTLVTVSS
VL: AQVLTQTASPVSAAVGGTVTINCQSSQSVLNNNWLHWYQQKPGQPPKLLIYDASSLASGVPSRFKGSGSGTQFTLTISDLESDDAATYYCQGEFSCGSADCNAFGGGTEVVVKG
notes: tested as culture supernatant; also called 24D9 VL A36H
B17: MYT7937 (antibody, V domains shown)
VH: QQQLVESGGGLVKPGASLTLTCKASGFSFSGSYWICWVRQAPGKGLEWIGCINGGSLDITYYASWAKGRFTISKASSTTVTLQKTSLTAADTATYFCASDTSYTAYGNFYFNLWGPGTLVTVSS
VL: AQVLTQTASPVSAAVGGTVTINCQSSQSVLNNNWHAWYQQKPGQPPKLLIYDASSLASGVPSRFKGSGSGTQFTLTISDLESDDAATYYCQGEFSCGSADCNAFGGGTEVVVKG
notes: tested as culture supernatant; also called 24D9 VL L35H
B18: MYT7948 (antibody, V domains shown)
VH: QQQLVESGGGLVKPGASLTLTCKASGFSFSGSYWICWVRQAPGKGLEWIGCINGGSLDITYYASWAKGRFTISKASSTTVTLQKTSLTAADTATYFCASDTSYTAYGNFYFNLWGPGTLVTVSS
VL: AQVLTQTASPVSAAVGGTVTINCQSSQSVLNNNWLAWYQQKPGQPPKLLIYDASSLASGVPSRFKGSGSGTQFTLTISDLESDDAATYYCQGHFSCGSADCNAFGGGTEVVVKG
notes: tested as culture supernatant; also called 24D9 VL E93H
B19: MYT7946 (antibody, V domains shown)
VH: QQQLVESGGGLVKPGASLTLTCKASGFSFSGSYWICWVRQAPGKGLEWIGCINGGSLDITYYASWAKGRFTISKASSTTVTLQKTSLTAADTATYFCASDTSYTAYGNFYFNLWGPGTLVTVSS
VL: AQVLTQTASPVSAAVGGTVTINCQSSQSVLNNNWLAWYQQKPGQPPKLLIYDASSLASGVPSRFKGSGSGTQFTLTISDLESDDAATYYCHGEFSCGSADCNAFGGGTEVVVKG
notes: tested as culture supernatant; also called 24D9 VL Q91H

Each binder was assayed against T1, Human LRRC15 Protein, His Tag (Acro …) (assay: BLI; dissociation pH 7.4 black, pH 5.4 grey [D00016 FIG. 3B]).

Binder | binding result
B1 | binds
B2 | binds
B3 | no binding (tested: 50 nM LRRC15)
B4 | binds
B5 | binds
B6 | binds
B7 | no binding (tested: 50 nM LRRC15)
B8 | binds
B9 | binds
B10 | binds
B11 | no binding (tested: 50 nM LRRC15)
B12 | binds
B13 | no binding (tested: 50 nM LRRC15)
B14 | no binding (tested: 50 nM LRRC15)
B15 | binds
B16 | no binding (tested: 50 nM LRRC15)
B17 | binds
B18 | no binding (tested: 50 nM LRRC15)
B19 | binds
